This is an account of results in US20260125472A1 (HEFEI TG IMMUNOPHARMA, published 2026).

One test addresses T1, Trop2 protein (UniProt P09758 27-274).
T1 construct: Bought recombinant protein; also called Trop2-Biotin protein (biotin-labelled, bridging ELISA)
T1 sequence (looked up): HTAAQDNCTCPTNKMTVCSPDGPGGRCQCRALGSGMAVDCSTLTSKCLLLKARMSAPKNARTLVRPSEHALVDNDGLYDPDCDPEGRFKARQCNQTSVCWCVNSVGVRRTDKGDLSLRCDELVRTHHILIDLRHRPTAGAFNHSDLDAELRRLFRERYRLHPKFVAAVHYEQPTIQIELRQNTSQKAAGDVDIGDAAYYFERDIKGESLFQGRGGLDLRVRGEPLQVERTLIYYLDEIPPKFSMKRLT
Description: ELISA, coated Trop2 protein, OD450. The procedure, abridged:
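Plates coated overnight at 4° C with Trop2 at 2 μg/ml, blocked with PBS/10% BSA; serially diluted bispecifics bound 1 h at 37° C. Detection by HRP anti-human Fab secondary, TMB 3 min, acid stop, OD450.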
(In general: ELISA stands for enzyme-linked immunosorbent assay.)

For the next test, the target named is T2, CD3E&D protein (UniProt P04234 22-105).
T2 construct: Purchased from Acro; also called CD3 E&D antigens; CD3E&D antigen protein
T2 sequence (chain, as listed by the source limits assumed, chain 1 of 2): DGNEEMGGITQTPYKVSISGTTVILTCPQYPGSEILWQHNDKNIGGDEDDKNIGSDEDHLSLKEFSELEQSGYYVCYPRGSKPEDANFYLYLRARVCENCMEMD
T2 sequence (P04234 22-105 limits assumed, chain 2 of 2): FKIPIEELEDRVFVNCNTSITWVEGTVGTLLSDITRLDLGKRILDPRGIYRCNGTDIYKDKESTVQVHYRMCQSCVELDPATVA
Description: ELISA, coated CD3E&D protein, OD450. The text has this: In this example, the binding properties of the CD3×Trop2 and CD3×PDL1 bispecific antibody (the production method and the amino acid sequences of the heavy and light chains were shown in Example 1) were detected by using ELISA. The CD3E&D, Trop2, or PDL1 protein was coated onto 96-well plates by inventors, and the strength of the signal after the addition of the antibody was used to determine the binding properties of the antibody and the corresponding protein.
(1) CD3E&D protein (purchased from Acro) was diluted to 2 μg/ml with PBS buffer, added to a 96-well plate at a volume of 100 μL/well, and placed at 4° C. overnight. The PBS buffer in the 96-well plate was aspirated, and the plate was washed 6 times with PBST (pH 7.2 PBS containing 0.1% Tween 20) buffer. Then, 200 μL/well PBS/10% BSA was added and incubated at 37° C. for 2 h for blocking. The blocking solution was removed, and the plate was washed 6 times with PBST. […] The absorbance was read at 450 nm using a microplate reader.

In test [1] the target is T3, Trop2 on A-375-Trop2 melanoma cells (UniProt P09758 27-323, limits assumed).
T3 construct: whole, on cells
T3 sequence (looked up): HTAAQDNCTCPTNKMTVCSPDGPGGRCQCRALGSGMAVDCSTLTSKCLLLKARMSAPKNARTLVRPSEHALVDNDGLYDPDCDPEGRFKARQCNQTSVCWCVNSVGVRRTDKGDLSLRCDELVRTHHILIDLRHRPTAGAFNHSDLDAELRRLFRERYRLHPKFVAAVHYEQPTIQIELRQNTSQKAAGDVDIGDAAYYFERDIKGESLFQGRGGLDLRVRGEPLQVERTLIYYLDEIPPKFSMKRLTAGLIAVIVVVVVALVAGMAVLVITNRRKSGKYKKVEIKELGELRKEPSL
In words: flow cytometry, A-375-Trop2 cells, MFI [panel B]. The procedure, abridged:
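Cells were blocked with goat serum at 4° C for 30 min, then incubated with serially diluted bispecific antibodies or hIgG1LALA control at 4° C for 30 min. Bound antibody was detected with Alexa-647 anti-human IgG (4° C, 30 min, dark) and read by flow cytometry.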

B1: Cross317×Trop2 (bispecific antibody)
scFv: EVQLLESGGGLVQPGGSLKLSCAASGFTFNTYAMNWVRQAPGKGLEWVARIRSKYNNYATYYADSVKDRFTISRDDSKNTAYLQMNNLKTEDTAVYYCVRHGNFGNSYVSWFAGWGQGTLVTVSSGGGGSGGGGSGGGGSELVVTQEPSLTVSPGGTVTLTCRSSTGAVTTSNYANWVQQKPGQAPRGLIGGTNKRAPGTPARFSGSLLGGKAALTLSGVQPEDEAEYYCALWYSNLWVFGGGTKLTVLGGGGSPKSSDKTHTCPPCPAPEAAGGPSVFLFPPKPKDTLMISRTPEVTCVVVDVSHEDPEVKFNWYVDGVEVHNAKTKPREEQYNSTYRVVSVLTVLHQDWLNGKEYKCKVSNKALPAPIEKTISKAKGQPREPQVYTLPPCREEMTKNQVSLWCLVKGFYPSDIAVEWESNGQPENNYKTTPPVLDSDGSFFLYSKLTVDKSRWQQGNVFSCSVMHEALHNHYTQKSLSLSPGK
heavy: QVQLQQSGSELKKPGASVKVSCKASGYTFTNYGMNWVKQAPGQGLKWMGWINTYTGEPTYTDDFKGRFAFSLDTSVSTAYLQISSLKADDTAVYFCARGGFGSSYWYFDVWGQGSLVTVSSASTKGPSVFPLAPSSKSTSGGTAALGCLVKDYFPEPVTVSWNSGALTSGVHTFPAVLQSSGLYSLSSVVTVPSSSLGTQTYICNVNHKPSNTKVDKKVEPKSSDKTHTCPPCPAPEAAGGPSVFLFPPKPKDTLMISRTPEVTCVVVDVSHEDPEVKFNWYVDGVEVHNAKTKPREEQYNSTYRVVSVLTVLHQDWLNGKEYKCKVSNKALPAPIEKTISKAKGQPREPQVCTLPPSREEMTKNQVSLSCAVKGFYPSDIAVEWESNGQPENNYKTTPPVLDSDGSFFLVSKLTVDKSRWQQGNVFSCSVMHEALHNHYTQKSLSLSPGK
light: DIQLTQSPSSLSASVGDRVSITCKASQDVSIAVAWYQQKPGKAPKLLIYSASYRYTGVPDRFSGSGSGTDFTLTISSLQPEDFAVYYCQQHYITPLTFGAGTKVEIKRTVAAPSVFIFPPSDEQLKSGTASVVCLLNNFYPREAKVQWKVDNALQSGNSQESVTEQDSKDSTYSLSSTLTLSKADYEKHKVYACEVTHQGLSSPVTKSFNRGEC
The term EC50 (read off the curve) denotes the midpoint of the concentration-response curve. On to B1, for which the “EC50 (read off the curve)” value was approximately 0.008 µg/mL in the test with Trop2 protein, approximately 1 µg/mL in the test with CD3E&D protein and approximately 1 µg/mL in test [1].
